130 substances from the supplement of paper PMC12042874 can be followed below.

A short description of this data set: amyloid nucleation score (Sup35N fusion, yeast selection) (log enrichment); library NNK3; higher = more nucleation; inactive = no reads after selection. An outline of the steps: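 Peptides of 20 random codons fused to Sup35N were expressed in psi-negative yeast, induced 24 hours with 100 μM copper sulfate, then grown 7 days at 30°C on medium lacking adenine and uracil. Input and output plasmid inserts were Illumina-sequenced. Nucleation score is the DiMSum log enrichment of output over input reads, centred on the mode score of non-aggregating sequences, excluding sequences with under 100 input reads. Random libraries had three technical output replicates.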

± gives the uncertainty stated by the source.

For LRSRKWSSTVSCEYSANGLR, the amyloid nucleation score result was “inactive”.

With NLWLECNLESSQRSSLFTKL, the amyloid nucleation score result is “inactive”.

With GAFRTFYMLMWSYLCISGSV, the amyloid nucleation score entry is “inactive”.

Turning to YVLCFVVELWIGFSDDWISW, the amyloid nucleation score result was “inactive”.

LCKCLLIEFCYVVK: the amyloid nucleation score was determined as 0.772 ± 0.12.

With GITRVRSSFVSAASHV, the amyloid nucleation score result is “inactive”.

On to VIGAFRLYNFNVALISSNIS, for which the amyloid nucleation score result was “inactive”.

As to TVYELYVDLAVRRSAFAFLP, the amyloid nucleation score worked out at 0.744 ± 0.15.

For RECDFFLWAYYLVNIQLRVQ, the amyloid nucleation score was -0.27 ± 0.66.

Regarding YTGSMAGSTYLTGKLSLDDR, the amyloid nucleation score entry was “inactive”.

Substance VFCAGLFDTMCCSDGASVEV gave an amyloid nucleation score of 1.16 ± 0.095.

For VQSSPVYMFMTNNSF, the amyloid nucleation score came to 1.8 ± 0.056.

Substance CVTSVVFRFRQHGYTRKGMA yielded an amyloid nucleation score of 1.27 ± 0.15.

Turning to NLGTATLHLSYYMDPLTT, the amyloid nucleation score result is “inactive”.

With GMQAGTGSKCCGRTGQI, the amyloid nucleation score result was “inactive”.

Turning to SHFAEQGLSCSLSYSFSTIL, the amyloid nucleation score entry is “inactive”.

On to TIAHYTVP, for which the amyloid nucleation score entry is “inactive”.

For RSFSLGRLSYYRGVTNILLA, the amyloid nucleation score result was “inactive”.

As to RRNHMEFWTCSKYPRGLCGI, the amyloid nucleation score entry was “inactive”.

Consider FHYGLSWLSSTKGSYVFYIG, for which the amyloid nucleation score entry was “inactive”.

In the case of RMPAFLCGYC, the amyloid nucleation score entry is “inactive”.

As for GLYVVYFNILTTKGYQLIVM, the amyloid nucleation score result was “inactive”.

RSSSASR: the amyloid nucleation score entry is “inactive”.

On to TFFLYVKIRVALNIRVPGVR, for which the amyloid nucleation score result is “inactive”.

On to SSLVSCYRIFNRSGADLGLT, for which the amyloid nucleation score result was “inactive”.

For CYVNYWESDMLRTAVPNCTF, the amyloid nucleation score entry is “inactive”.

With RAVYSGVSMD, the amyloid nucleation score entry was “inactive”.

For SFYMPTQKLMLFIVVKVKAT, the amyloid nucleation score result is “inactive”.

As for KLEREMADNDVARGGQLVLG, the amyloid nucleation score entry is “inactive”.

As to TWILSMWRSCIPNL, the amyloid nucleation score entry was “inactive”.

GDTVLVILSILSVGCC gave an amyloid nucleation score of 1.2 ± 0.15.

Consider TLWAEYTNLSEKEIDDYIDL, for which the amyloid nucleation score entry is “inactive”.

Take SGSWHKH: the amyloid nucleation score result is “inactive”.

Take MWGVCSFFAFPHIIFM: the amyloid nucleation score was 1.33 ± 0.11.

For the substance ISSNTGFCPAVMLGIPFFRI, the amyloid nucleation score entry is “inactive”.

As for EYNPWFDCWICSEVSATNNR, the amyloid nucleation score was 1.96 ± 0.077.

For CGRLHDVG, the amyloid nucleation score entry is “inactive”.

Regarding HKDICLNFSVDHLDVMSQCA, the amyloid nucleation score result is “inactive”.

Take FIGVCNLVWMELPLDAMRFF: the amyloid nucleation score was found to be 1.36 ± 0.11.

For the substance AVGNCSSWGYGSSTLP, the amyloid nucleation score result is “inactive”.

Turning to FNTRQSNLKDDMVSFHDSDL, the amyloid nucleation score result was “inactive”.

Consider VGAGWYN, for which the amyloid nucleation score entry was “inactive”.

As for STDQSASRVSERQLLCLPLT, the amyloid nucleation score entry is “inactive”.

In the case of HAEPIYFYIVRTLKDG, the amyloid nucleation score entry is “inactive”.

Turning to MRTMLVFVRGFKFFLPDLLI, the amyloid nucleation score result is “inactive”.

On to VDEDQLRHMWVHSD, for which the amyloid nucleation score entry was “inactive”.

In turn, ICYPLFFCNAEWRFEEPCVL yielded an amyloid nucleation score of 2.57 ± 0.075.

As for CLKVSTKCFW, the amyloid nucleation score was 0.097 ± 0.52.

As for WAEFLCLSSSFFLDM, the amyloid nucleation score entry is “inactive”.

In turn, WVGNTVKHKLGLVGNCGSCA came in with an amyloid nucleation score of -0.73 ± 1.9.

For HYMLGSLSPVWLFFL, the amyloid nucleation score entry was “inactive”.

Turning to PVYERPRCQNFLGCYWSCAQ, the amyloid nucleation score result is “inactive”.

For THGIMLGFEECLGVYTFMCG, the amyloid nucleation score entry is “inactive”.

On to HCVTLWLKSYL, for which the amyloid nucleation score entry is “inactive”.

As to GKCVGEPPAQSEKTWRNGSL, the amyloid nucleation score entry is “inactive”.

Regarding YLCWAFDTMVSGDRGPRSC, the amyloid nucleation score is -0.102 ± 0.81.

For the substance TLYKSGGEFHYKGLALKSKC, the amyloid nucleation score result is “inactive”.

On to MLNAIGCLSWSQFPESLLLG, for which the amyloid nucleation score entry is “inactive”.

Regarding IGLSAKIRFWVMWRMRHTR, the amyloid nucleation score result was “inactive”.

As for LLLDNITLGLWEFIRYRCGW, the amyloid nucleation score entry was “inactive”.

As to AYRLTLCLPSWVWL, the amyloid nucleation score entry is “inactive”.

Consider ATSEYWILLVFYLCDIAQVS, for which the amyloid nucleation score result is “inactive”.

Regarding MGKETRVA, the amyloid nucleation score entry was “inactive”.

With PCGVEMLWFKG, the amyloid nucleation score entry is “inactive”.

Regarding FECDKENSSLDSPFMLAFKD, the amyloid nucleation score result is “inactive”.

Turning to VWVHA, the amyloid nucleation score result is “inactive”.

Consider CCFSTGCHEKCSSLDDMCVF, for which the amyloid nucleation score result was “inactive”.

Turning to RACARVLLEVCFLFEFSMST, the amyloid nucleation score result was “inactive”.

Regarding RMVDFADF, the amyloid nucleation score entry was “inactive”.

Regarding PEAVAAKRPSLQYPFASMTS, the amyloid nucleation score entry is “inactive”.

LSYNTVDVWPLAFNFWWMIS: the amyloid nucleation score is 0.199 ± 0.44.

In the case of SVERCVIRFCYLQGLYMAAF, the amyloid nucleation score result is “inactive”.

The substance DGVLSVGSLCNDRFVLEMYG gave an amyloid nucleation score of -0.432 ± 1.

For CCGINGIKLAAANRWSPVEH, the amyloid nucleation score result is “inactive”.

With WAYLWLSKNSYGR, the amyloid nucleation score result is “inactive”.

With VVLRTSLCVMWINVRHLCDP, the amyloid nucleation score entry is “inactive”.

On to VGSGCNISTKTACFYMKLIA, for which the amyloid nucleation score result is “inactive”.

Substance GSPVRWRGPGFTSPRLTRA had an amyloid nucleation score of 0.766 ± 0.26.

Consider YYYYDRCMRPVHSGKGVKLW, for which the amyloid nucleation score entry is “inactive”.

Regarding SKLRYRCSNSHQVIGTPCLD, the amyloid nucleation score entry was “inactive”.

YKYVTNDLSRVILRPVSARY: the amyloid nucleation score entry was “inactive”.

On to QLVFYHVDLHILPFWSAI, for which the amyloid nucleation score is 2.15 ± 0.081.

As for YQICGCSCLSYLPFLTSSIF, the amyloid nucleation score entry was “inactive”.

For the substance LLVLLVFTALY, the amyloid nucleation score result was “inactive”.

Take FSVSDSFP: the amyloid nucleation score entry is “inactive”.

In the case of NSLPCLGYGMFM, the amyloid nucleation score entry is “inactive”.

With LREKND, the amyloid nucleation score result was “inactive”.

ECSVSMCEKGITYRSVVERG: the amyloid nucleation score result was “inactive”.

As to VLVIIKSD, the amyloid nucleation score result is “inactive”.

In turn, LFLFQFRYGSWGFRGYMVGR displayed an amyloid nucleation score of 0.837 ± 0.27.

For the substance IMTLFTILVTLMTMCLDQFV, the amyloid nucleation score entry was “inactive”.

Regarding TRERWTTVYLNKLFLLCYSD, the amyloid nucleation score result was “inactive”.

In the case of VNKVKILCYGHHFKGMWDLA, the amyloid nucleation score result was “inactive”.

SHVHLDSSRKRHIDLTNALR: the amyloid nucleation score result is “inactive”.

As to NSSTDFS, the amyloid nucleation score entry is “inactive”.

NKHDHLFRKFFLCISLGLAG: the amyloid nucleation score entry was “inactive”.

Take FGEVNIAYRMIMRMSGQGGK: the amyloid nucleation score came out at 0.998 ± 0.17.

In the case of VFVVGSVSRCCKKLVT, the amyloid nucleation score entry is “inactive”.

As to PRLLRVSAIKSGRCPKGKKS, the amyloid nucleation score result was “inactive”.

Regarding FLACSDVVYSDN, the amyloid nucleation score result is “inactive”.

As for GADVSSHVKIFINYNLFSFI, the amyloid nucleation score was determined as 2.55 ± 0.076.

For PWIGVNINSSVLVMVFGGGM, the amyloid nucleation score worked out at 1.97 ± 0.079.

Regarding GLLMFLNVCLVVTVSARTYS, the amyloid nucleation score result was “inactive”.

For the substance SFLPSNSFFKYQCVMWC, the amyloid nucleation score result is “inactive”.

YMRLGRWWSFKAVDGRRLKW yielded an amyloid nucleation score of -0.373 ± 1.3.

For the substance SFLARVFT, the amyloid nucleation score result is “inactive”.

NENHGCYMGRVFQCGIYEYV registered an amyloid nucleation score of 1.44 ± 0.13.

Turning to VFTFAWMLNRVISNYHPTIP, the amyloid nucleation score result is “inactive”.

Take LISMYHHCSGHLVAQDTVSV: the amyloid nucleation score entry was “inactive”.

For the substance MPMGGRYSAKAIVLVQKKDW, the amyloid nucleation score result was “inactive”.

Consider FCACLERQTSLNF, for which the amyloid nucleation score entry is “inactive”.

Consider LFMEYWSVATCRNSGIVFIV, for which the amyloid nucleation score result was “inactive”.

Consider ALTHHVVYLMAGKNVTTS, for which the amyloid nucleation score entry was “inactive”.

With AFSFPSERVWVWNFHMRDKE, the amyloid nucleation score came to 3.11 ± 0.058.

For the substance PSSLKYSKRVLSVSIHWERL, the amyloid nucleation score result is “inactive”.

Consider ACMLNEWRNVVRPYLCLSKN, for which the amyloid nucleation score entry is “inactive”.

DCVNWTWHTTDNLVVTYSYN: the amyloid nucleation score entry was “inactive”.

The substance RAFFLVIAIFNKVEVVSGST came in with an amyloid nucleation score of 1.15 ± 0.14.

Consider SMSMDAYPQPPLNAMVLVSH, for which the amyloid nucleation score entry is “inactive”.

Take NLNFDWTPVPSFSYHAPSKF: the amyloid nucleation score result was “inactive”.

For CSFSISSSGVLWRGKERPIG, the amyloid nucleation score was 1.05 ± 0.18.

For RPKTTH, the amyloid nucleation score result is “inactive”.

On to PTTCSNFSAYWNVCDPHNIS, for which the amyloid nucleation score result was “inactive”.

As to ICELPNIYDVS, the amyloid nucleation score entry was “inactive”.

On to ICYTYNGPRSSVGVVLLGQ, for which the amyloid nucleation score entry was “inactive”.

Turning to PTSFYPVQRPPRFCAGHFRS, the amyloid nucleation score result was “inactive”.

FVKSVRYSL: the amyloid nucleation score was determined as 1.45 ± 0.064.

Take KNVFGSSFLLVVSYCNISAF: the amyloid nucleation score was 1.95 ± 0.091.

With VLILCIKNTCLNQCASSCHR, the amyloid nucleation score stood at 2.02 ± 0.068.

RLFMDLYVFTTRVFNIFQFV: the amyloid nucleation score result was “inactive”.
